# Data: the nanobody polyreactivity screen of Harvey et al. (2022)
# Experiment: yeast display, Sf9 membrane polyspecificity reagent, FACS + sequencing; frameworks hold sequencing errors
# Method in brief: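 A nanobody's polyreactivity label depends on the gate it was sorted from. Yeast display cells were stained with 10% biotinylated, detergent-solubilized Sf9 membrane reagent for 1 hour at 4 °C, enriched on streptavidin microbeads and sorted by FACS. The low and high (top ~1%) gates were set on anti-HA fluorescence for expression and streptavidin fluorescence for reagent binding.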
row,Sequence,polyreactivity (PSR sort gate)
1,QVQLVESGGGLVQAGGSLRLSCAASGRIFGVNAMGWYRQAPGKERELVAGISISGGSTHYADSVKGRFTISRDNAKNTVYLQMNSLKPEDTAVYYCAKRFYKYVSYWHDYWGQGTQVTVSS,low polyreactivity
2,QVQLVESGGGLVQAGGSLRLSCAASGRIFGVNAMGWYRQAPGKERELVAHIRSSGASTYYADSVKGRFTISRDNAKNTVYLQMNSLKPEDTAVYYCARDYFVDGPGYDYWGQGTQVTVSS,low polyreactivity
3,QVQLVESGGGLVQAGGSLRLSCAASGRIFGVNAMGWYRQAPGNERELVAHIRSSGASTYYADSVKGRFTISRDNAKNTVYLQMNSLKPEDTAVYYCARDYFVDGPGYDYWGQGTQVTVSS,low polyreactivity
4,QVQLVESGGGLVQAGGSLRLSCAASGRIFGVNAMGWYTQAPGKERELVAAIRYTGGSTYYADSVKGRFTISRDNAKNTVYLQMNSLKPEDTAVYYCAKARYTYSWSFGYWGQGTQVTVSS,low polyreactivity
5,QVQLVESGGGLVQAGGSLRLSCAASGRIFGVYAMGWYRQAPGKDREFVASITRGGGRTYYADSVKGRFTISRDNAKNTVYLQMNSLKPEDTAVYYCNAVVNSYPYYYWGQGTQVTVSS,high polyreactivity
6,QVQLVESGGGLVQAGGSLRLSCAASGRIFGVYAMGWYRQAPGKERELVAAISSGASTYYADSVKGRFTISRDNAKNTVYLQMNSLKPEDTAVYYCAKSVKGGTGYYYWGQGTQVTVSS,low polyreactivity
7,QVQLVESGGGLVQAGGSLRLSCAASGRIFGVYAMGWYRQAPGKERELVATIRSSGTRTNYADSVKGRFTISRDNAKNTVYLQMNSLKPEDTAVYYCAAGGRPYKLDFTRSDYWGQGTQVTVSS,low polyreactivity
8,QVQLVESGGGLVQAGGSLRLSCAASGRIFGWYAKGWYRQAPGKETELVAAISPGGSTKYADSVKGRFTISRDYAKNTVYLQMNSLKPEDTADYYFAADLFNYTTGRDYWGQGTQVTVSS,low polyreactivity
9,QVQLVESGGGLVQAGGSLRLSCAASGRIFGWYAMGCYIQAPGKERELVAAISSNGGSTYYADSVKGRFTISRDNAKNTVYLQMNSLKPEDTAVYYCAAVRVFQYKYDRFNYWGQGTQVTVSS,high polyreactivity
10,QVQLVESGGGLVQAGGSLRLSCAASGRIFGWYAMGSYRQAPGKEREFVAAITRRGGRTYYADSVKGRFTISRDNEKNNVYLQMNSLKPEDTAVYYCAVKYVRIGGVGPIVIYNYWGQGTQVTVSS,high polyreactivity
11,QVQLVESGGGLVQAGGSLRLSCAASGRIFGWYAMGWYRQAPGKEREFVAAITVTGGSTYYADSVKGRFTISRDNAKNTVYLQMNSLKPEDTALYYCAADRWYTRTGFDYWGQVTQVTVSS,low polyreactivity
12,QVQLVESGGGLVQAGGSLRLSCAASGRIFGWYAMGWYRQAPGKERELVAAISRGGTTYYADSVKGRFTISRDNAKNTVYLQMNSLKPEDTAVYYCAAPVPYYVPRRNEGDYWGQGTQVTVSS,low polyreactivity
13,QVQLVESGGGLVQAGGSLRLSCAASGRIFGWYAMGWYRQAPGKERELVAAISSAGRTYYADSVKGRFTISRDNAKNTDYLQMNSLKPEDTAVYYCAAEIARSFYRYTYYYWGQGTQVTVSS,high polyreactivity
14,QVQLVESGGGLVQAGGSLRLSCAASGRIFGYNAMGWYRHAPGTERELVAAITNGGSTNYADSVKGRFTISRDNAKNTVYLQMNSLKPEDTAVYYCAADRGGLRWFWQVLYDYWGQGTQVTVSS,low polyreactivity
15,QVQLVESGGGLVQAGGSLRLSCAASGRIFGYNAMGWYRQAPGKERELVAAINSDGSKNYADSVKGRFTISRDNAKNTVYLQINSLNPEDTAVYYCAARWISVWSEGAEHDYWGQGTQVTVSS,low polyreactivity
16,QVQLVESGGGLVQAGGSLRLSCAASGRIFGYNAMGWYRQAPGKERELVDAITTSGGSTYYADSVKGRFTISRDNAKNTVYLQMNSLKPEDTAVYYCARDSLQVFYPYASDDYWGQGTQVTVSS,low polyreactivity

row,Sequence,polyreactivity (PSR sort gate)
1,QVQLVESGGGLVQAGGSLRLSCAASGRIFGYNTMGWYRQAPGKERELVAAINSGGRTYYADSVKGRFPISRDNAKNTVYLQMNSLKPEDTAVYYCATTTYKRFYRAPTSKYDYWGQGTQVTVSS,high polyreactivity
2,QVQLVESGGGLVQAGGSLRLSCAASGRIFGYTMGWYRQAPGKERELVAAISKSGGSTYYADSVKGRFTISRDNAKNTVYLQMNSLKPEDTAVYYCAAEYGYGKRAYDSWGQGTQVTVSS,high polyreactivity
3,QVQLVESGGGLVQAGGSLRLSCAASGRIFGYYAMCWYRQAPGKERELVARITWYGGDTYYADSVKGRFTISRDNAKNTVYLQMNSLKPEHTAVYYCGADFVFYRQPDTYFYPHDYWGQGTQVTVTS,low polyreactivity
4,QVQLVESGGGLVQAGGSLRLSCAASGRIFGYYAMGWYRQAPGKEREFVAGITQRTDSTYYADSVKGRFTISRDNAKNTVYLQMKSLKPEDTAVYYCAARGYGGYHWGYYWGQGTQVTVSS,high polyreactivity
5,QVQLVESGGGLVQAGGSLRLSCAASGRIFGYYAMGWYRQAPGKERELVAAINSGSRTYYADSVKGRFTISRDNAKNTVYLQMISLKAEDTAVYDCAASVRYPPYRSSDGQRGGYWGQGTEVTVSS,high polyreactivity
6,QVQLVESGGGLVQAGGSLRLSCAASGRIFGYYAMGWYRQAPGKERELVAAIRRSGGSTYADSVKGRFTISRDNAKNTVYLQMNSLKPEDTAVYYCAAWIYEYDYWGQGTQVTVSS,high polyreactivity
7,QVQLVESGGGLVQAGGSLRLSCAASGRIFGYYAMGWYRQAPGKERELVAAISYRGSSTYYADSVKGRFTISRDNAKNTVYLQMNSLKPEDTAVYYCAAKGHGRTYDYWGQGTQVTVSS,high polyreactivity
8,QVQLVESGGGLVQAGGSLRLSCAASGRIFGYYAMGWYRQAPGKERELVAAIYSGGSTYYADSVKGRFTISRDNAKNTVYLQMNSLKPEDTAVYYCAAYYYGWYTPSQSPKYDYWGQGTQVTVSS,high polyreactivity
9,QVQLVESGGGLVQAGGSLRLSCAASGRIFGYYAMGWYRQAPGKERELVADITESGTSTYYADSVKGRFTISRDNAKNTVYLQMNSLKPEDTAVYYCAAGYWWRYALYGYWGQGTQVTVSS,low polyreactivity
10,QVQLVESGGGLVQAGGSLRLSCAASGRIFGYYAMGWYRQAPGKERELVAGIDWSGGNTYYADSVKGRFTISRDNAKNTVYLQMNSLKPEDTAVYYCNTEGGRDTAWYDYWGQGTQVTVSS,low polyreactivity
11,QVQLVESGGGLVQAGGSLRLSCAASGRIFGYYDMGWYRQAPGKERELVAAITWSGGSTYYADSVKGRFTISRDNAKNTVYLQMNSLKPEDTAVYYCAAEKRYRKAFDYWGQGTQVTVSS,high polyreactivity
12,QVQLVESGGGLVQAGGSLRLSCAASGRIFGYYGRGWYRQAPGKERELVARISGRGGSTYYADSVKGRFTLSRDNAKNTVYLQINSLKPEDTAVYYCNVVFSFWQYYAYDQGDYWGQGTQVTVSS,low polyreactivity
13,QVQLVESGGGLVQAGGSLRLSCAASGRIFGYYVMGWYRQAPGKDRELVATISRVGTTNYADSVKGRFTISRDNAKNTVYLQMNSLKPEDTAVYYCNADYTGHRGGNDYWGQGTQVTVSS,low polyreactivity
14,QVQLVESGGGLVQAGGSLRLSCAASGRIFGYYVMGWYRQAPGKERELVAAISRSGGSTYYADSVKGRFTISRDNAKNTVYLQMNSLKPEDTAVYYCAKRVCTYGFSGYDYWGQGTQVTVSS,high polyreactivity
15,QVQLVESGGGLVQAGGSLRLSCAASGRIFHFNAMGWYRQAPGKERELVATITKRGGRTYYADSVKGRFTISRDNAKNTVYLQMNSLKPEDTAVYYCNADQSRYSAVSGYDYWGQGTQVTVSS,high polyreactivity
